The supplement of paper PMC9170038

Tested on: K4 kissing-loop RNA reporter
Assay: apparent KD of K4 kissing-loop reporter; higher = weaker reporter binding
Conditions: Eterna round: R107
Description: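 RNA-MaP round R107: designed RNA switches with theophylline, tryptophan, arginine or FMN aptamers are transcribed on-chip within common flanks. They are titrated with a labelled K4 kissing-loop RNA reporter in RNA-MaP buffer (100 mM Tris pH 7.5, 80 mM KCl, 4 mM MgCl2), without ligand or with the indicated ligand. Median apparent KD per design.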

[1] = input ligand: theophylline 20 uM
[2] = input ligand: tryptophan 2.4 mM
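Further: bound reporter read as fluorescence of individual clusters on recovered sequencing chips by microscopy, with normalized cluster intensities fitted with a binding model.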

| Sequence | apparent KD of K4 kissing-loop reporter (input ligand: FMN 200 uM) | apparent KD of K4 kissing-loop reporter (input ligand: arginine 13.2 mM) | apparent KD of K4 kissing-loop reporter (input ligand: none) | apparent KD of K4 kissing-loop reporter [1] | apparent KD of K4 kissing-loop reporter [2] |
| --- | --- | --- | --- | --- | --- |
| UGAUAGGACAGAAGGAGCGGAAGUGAUGUUUCCAAUGGAAUUAAGGUGUCAAAGACACCCUUCCAGGUAGGUCGCUGUCCUAUCU [ArgBX 18 #Palindromic #SwitchBubble #StaticStem] | 156 nM | 161 nM | 155 nM | 159 nM | 145 nM |
| GGGCGUGGCGCGGCCGCCACUGCGCCUGGGUGCUCGCUGAGUGAUGUUCGUCGGCGGUUGGGUGGUAGGACCGGGUGCUGGUCGG [BDazzled - #11 SS Tryptophan B] | 640 nM | 407 nM | 629 nM | 517 nM | 563 nM |
| GCGCGUCAUGUCAGCGGUGACACUGUCGAUACCAGCGCCGAAAGGCGCCCUUGGCAGCGACGUGCUGGAGUGAUGUUCCAGCGUC [#2 Exclusion - Theophylline A Attempt #24 (HarryS)] | 163 nM | 108 nM | 148 nM | 148 nM | 139 nM |
| UGCACGGGCUCGGCCGCCACUCCAGCGGGUCGAAAGGUCCGCUACUGAGUGAUGUUCGGUUGGAGGAGGACCGGGAGCCCGUGCA [#2 Exclusion - Tryptophan B Attempt #28 (HarryS)] | 98.9 nM | 97.9 nM | 122 nM | 115 nM | 140 nM |
| UAUUGGAGUGAUGUUCCAUUAACGAUCCUACGAGGACCGGUACGGCCGCCACUCGAAAUGCAGUGAUGUUGCAGCCAGCCGUAAA [Exclusion Trptophan A GF 7] | 174 nM | 167 nM | 183 nM | 188 nM | 162 nM |
| UAUAUAGUGACGGCCGCCACUAUUGUGAUGUUGUUGUUAGAGUGAUGUUUUGUUGUUUGAUUUUGUAGGACCGGGUUAUAUGUUA [ffdfzmullin] | 780 nM | 500 nM | 615 nM | 567 nM | 562 nM |
| AGGGUAAGGCGUUAACAUGACACCUGGGAAGGAGCGCAGUACACUGCAGGUAGGUCGCCCAGUGAUGUUGGGCGUAUGUAUUAGU [Legexeso] | 140 nM | 143 nM | 153 nM | 200 nM | 119 nM |
| AGACUACCACACUGUCAAUAGACAGUGGACUAGGAUAUGCUGAUAAGCAGAAGGAGUGAUGUUCCGAGGUAGUCAAUAAAAUAAU [FmnAX 13 G28+G66] | 304 nM | 309 nM | 315 nM | 401 nM | 316 nM |
| AACUUUUAAUGAAUUACAUUUUAUUUUUCUCGAGGACCGGUACGGCCGCCACUCGUACUAUAGUGAUGUUAUAGAUAAGUCCUAA [JR_ExcTryptoA_Sub020] | 124 nM | 182 nM | 142 nM | 179 nM | 68.7 nM |
| UCGGACCCUGGAGGAUAUGAGUCGAGUGAUGUUCGGCGGUCCAUGCUGGUGCGGCGUUAUGCCCUUUUAGAAGGCCAGGGUCCGA [#2 Exclusion - FMN B Attempt #12 (HarryS)] | 220 nM | 147 nM | 194 nM | 174 nM | 162 nM |
| UGACUGGACUGAAGGAGCGCUGAACUCCUAGUGAUGUUAGGAUAACGAGACAAAGUCUCGCGGCAGGUAGGUCGCAGUCUAGUCU | 122 nM | 93.3 nM | 109 nM | 99.3 nM | 106 nM |
| CAUACGCAUGGAGGAUAUGAGAUUUCUCAUAUUAUUGUUUAUUCUCAGUGAUGUUGGGAUUUAAACUCAGAAGGCCAUGUGUAUG [Ex FMN B 9] | 273 nM | 124 nM | 138 nM | 137 nM | 132 nM |
| UGUACCGAGUAAGGAUAUGUCGUCGAAAGACGAAAUGGAGUGAUGUUCCUUAAACUGCGAAAGCAGACAGAAGGUACUUGGUACU [FmnBS 29 A11+U75] | 139 nM | 217 nM | 233 nM | 224 nM | 203 nM |
| AAUCUCCUAGUGAUGUUAGGUUUAAGGGAAGGAGCGAGGUAAUACUCAGGUAGGUCGCCCACAUGCAUUAAUAAAUCAAUUUAAU | 102 nM | 73.8 nM | 91 nM | 98.8 nM | 84.2 nM |
| AUCACAGUGAUGUUGUGAUAUGAUUCAGAUACCAGACUAGUGCUAGUCCCUUGGCAGCUGAACUCAGCAGCACCACUAGCACUCU [Theo A Ex t6] | 157 nM | 132 nM | 148 nM | 166 nM | 149 nM |
| AGUGAUGUUUUUUUUAAGAGUGAUGUUUUUCGAGGACCGGUACGGCCGCCACUCGAGUGAUGAGUGAGGUGUUGUGAUGUUUAGU [cxmullin] | 436 nM | 314 nM | 458 nM | 504 nM | 248 nM |
| GCAGUGAUGUUGCUCGUUUCAUCGCGAGAUACCAGACCAUAUGAGGUCCCUUGGCAGCUCUAGUCAUCUGGUCCUUUUGCGUACU [theeternabot_exclusion_KL_Theo_A_2] | 906 nM | 620 nM | 941 nM | 722 nM | 653 nM |
| AGUACGCCCAGUGAUACCAGCCCGCCUGGGCAGUGAUGUUGCUCGGGAAAUAAAAUAGAGGGCCCUUGGCAGCACACGGUAGUCC [Cees] | 186 nM | 144 nM | 189 nM | 107 nM | 174 nM |
| AAGGUUGUGCAUGGGAGUGAUGUUCCCAGGCAGGAUAUCGCUCACGCGAGAAGGGCUAGCACAACCGCUCAAGAAACUUGAGCAA [Omei KL FMN A SS C v4] | 117 nM | 97.1 nM | 113 nM | 116 nM | 94.5 nM |
| AAAUGUAUCUGAAGGAGCGUGAAAUAAUAUUAGACAUAAUAGCCCAGUGAUGUUGGGUUAUCACAGGUAGGUCGCAGAUGUAUAA [Same State Arginie B GF 26] | 112 nM | 108 nM | 105 nM | 125 nM | 106 nM |
| CGAUCUUGGUCGGCCGCCACUACACCCACACCAAAUAGGAAAGUAGCGAGUGAUGUUUGUGACGUUAGGACCGGGACCACUGGUC [theeternabot_sameState_KL_Trp_B_25] | 586 nM | 321 nM | 526 nM | 564 nM | 392 nM |

| Sequence | apparent KD of K4 kissing-loop reporter (input ligand: FMN 200 uM) | apparent KD of K4 kissing-loop reporter (input ligand: arginine 13.2 mM) | apparent KD of K4 kissing-loop reporter (input ligand: none) | apparent KD of K4 kissing-loop reporter [1] | apparent KD of K4 kissing-loop reporter [2] |
| --- | --- | --- | --- | --- | --- |
| AAAAUAAAAGGUCACCCAGUGAUGUUGGAAGGAGCGUGCGAAAGCACAGGUAGGUCGCCAACCUAAAAGUGACCAGGGAAACCCA [#SwitchBubble 7 #K4Early] | 594 nM | 253 nM | 171 nM | 183 nM | 276 nM |
| AAAUAGGAGUAAAUAAACAAUUUCCUUAGAGAGGAUAUUGGUAAUACAAGAAGGCUCUGUUGGGAGUGAUGUUCCCAUAACGCCU [Exclusion FMN A GF13] | 58.3 nM | 66.6 nM | 56.6 nM | 65.9 nM | 56.7 nM |
| CCUAUCUCAUACGAUACCAGUGAAUAACCAGUGAUGUUGGAAUAACCAAGGAAUAUUUUUCACCCUUGGCAGCGUAUGGGAUAGG [Ex Theophylline B K4 27] | 492 nM | 285 nM | 378 nM | 385 nM | 312 nM |
| AAGUGCCUCAAGAGGCAGUAUCUGCCUCAACGAGGACCGGUACGGCCGCCACUCGAAUAAUAGAGUGAUGUUCUAAGAGGCACAA [AK1.5 SS Tryptophan A] | 461 nM | 284 nM | 483 nM | 261 nM | 432 nM |
| GCCGUACGCAUGGAUACCAGCUAUUAGAGUGAUGUUCUAUGGCCCUGCCAAUGGAGCUGUAGCCCUUGGCAGCCAUGCGUACGGC | 112 nM | 95.2 nM | 109 nM | 105 nM | 104 nM |
| GAAGGUCAAAGACCUUCGUGCACACCUGAUACCAGUCGCGAAAGCGACCCUUGGCAGCAGGGUAGUGAUGUUGCCAGUGCACAAA [#14 K4 Theophylline A Same State] | 865 nM | 735 nM | 797 nM | 595 nM | 732 nM |
| AACCUGACGACGAGUGAUGUUCGAUGGGAAGGAGCGCGAAGAAAUGCAGGUAGGUCGCCCUAAGAGAGUGUAACGUCAGGAUUAU [1.)] | 364 nM | 303 nM | 286 nM | 348 nM | 191 nM |
| CCAUCGCUAUUCGAUACCAGUCUUCGUAGGAAACUACGUCUGCAAAGGAGUGAUGUUCCAGACCCUUGGCAGCGAAUAGUGAUGG [Theophylline B K4 4] | 771 nM | 553 nM | 1110 nM | 444 nM | 799 nM |
| AUUUGCUAGAAAGGAUAUAUUAGCUUGGUCACCGCGUCCGAUGGUUAAACUUCGUGAGUGAUGUUCAUAGAAGGUUCAGCCUCGA [theeternabot_exclusion_KL_FMN_B_20] | 155 nM | 122 nM | 146 nM | 138 nM | 124 nM |
| GGCCACGGGCGAGGAUAUGGGCAUGAUUCAUCCUGGAGUGAUGUUCCAGGUCCUACGUUUCGAGCACCAGAAGGCGUUUGUUGCU [Biazaqure] | 166 nM | 521 nM | 646 nM | 489 nM | 524 nM |
| UUUUAAUGCAGUGAUGUUGCAAAUAAAACAGAGGAUAUGCAUGGAAGCAGAAGGCUGAUAUGUCGUACUUCGACAUAUUAUAUUU [JR_SSFMNA_Sub012] | 89.2 nM | 125 nM | 91.4 nM | 121 nM | 81 nM |
| CGUGGUGCCAAAGGAUAUCAUGCUAACGCGGUUGAGUGAUGUUCGACCCGAGAUAAGAGUGGGCAUUGAGAAGGUUGCGCAGAAG [theeternabot_sameState_KL_FMN_B_10] | 149 nM | 125 nM | 139 nM | 124 nM | 145 nM |
| UCUGCUGUAUAUGAUACCAGCAGUGAGAGACAGGAAGUAUAGUGAUGUUAUAUGAGAGAAUGCCCUUGGCAGCGUGUGCGGGUGG [SSTheophylB.Y] | 119 nM | 111 nM | 81.7 nM | 119 nM | 66.2 nM |
| AAACAUUGGUCUGAUACCAGCUUGAUCGGAAACGAUCUGCUGGAGUGAUGUUCCAAGUAAAGCCCUUGGCAGCAGACCGAUGAAA [MAT - Same State Theophlline B - Mod of Eli - D16] | 121 nM | 69.6 nM | 149 nM | 192 nM | 115 nM |
| GGCAGUGAUGUUGCCAGUGGCGGAUGCGAAGGAGCGCGGUGAGACGCAGGUAGGUCGCGCAUUGAAAUUGCUGUCACUAGGAUGC [whbob_Ex_Arginine_A_2t129] | 272 nM | 262 nM | 267 nM | 313 nM | 212 nM |
| UAGUCCUAGUGAUCCUUAUCAAGUGGUGGGCGAGGACCGGUACGGCCGCCACUCGAAUAUGCAGUGAUGUUGUAAUCCGGACAAU [Exclusion - Tryptophan A (Freestyle 11)] | 897 nM | 906 nM | 852 nM | 899 nM | 580 nM |
| GGAUAGGAUAGAGGAUAUGGGCUAGGCAAGGAUAACUUGUCUAGCAAAUCCAUGAGGAGUGAUGUUCCAGAAGGCUGUCCUAUCG [MatMod 1 - Jieux - Exclusion - FMN B] | 733 nM | 160 nM | 162 nM | 148 nM | 158 nM |
| CGGUUUGGUUGAGAGGUUGGGCCGAAUGAUACCAGUAUAUAAGAAUACCCUUGGCAGCAUAAGAAAGAUAUAGUGAUGUUGUAUA [SSTheophA.J] | 475 nM | 537 nM | 495 nM | 513 nM | 507 nM |
| GUCUCAAAAGAGGCAAGCACUCACGAGGACAAGGAUAUCAUUUCAAUGAGAAGGUGUCCUCGUCCUCAGUGAUGUUGAGGAGUGC [Omei KL FMN A SS E 1] | 423 nM | 159 nM | 259 nM | 299 nM | 233 nM |
| AAUAAAAUCACGGCCGCCACUAAUGCUAGUAUUAGCAGUGAUGUUGCUAUGUAUAUUUUAUUUAAUAGGACCGGGUGAAUAUUUA [#23 K4 Tryptophan B Exclusion] | 332 nM | 294 nM | 346 nM | 308 nM | 224 nM |
| GUUCCCUACAAGGAUACCAGAACGUGUAGUCCGAGCGCUAGUGAUGUUGGCGUCUACCUCUUCCCUUGGCAGCCUGCAAAUCAGU [theeternabot_sameState_KL_Theo_B_48] | 269 nM | 155 nM | 236 nM | 217 nM | 200 nM |
